Test results as given in article PMC9482650, “Quantitative fragmentomics allow affinity mapping of interactomes” (Nature Communications, 2022).

Assays:
Test in all cases: holdup assay
Parameters in all cases: key: below the threshold = too weak to quantify, mostly under pKd 3.1 to 4
FRMPD2_2, Q68DX3 = target: FRMPD2_2, Q68DX3
MPP2, Q14168 = target: T1, MPP2, Q14168
T1 sequence (Q14168 180-250, limits assumed, looked up): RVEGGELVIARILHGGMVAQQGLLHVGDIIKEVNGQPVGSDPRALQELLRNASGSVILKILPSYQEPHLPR

GRIP1_7, Q9Y3R0 = target: T2, GRIP1_7, Q9Y3R0
T2 sequence (Q9Y3R0 999-1096, limits assumed, looked up): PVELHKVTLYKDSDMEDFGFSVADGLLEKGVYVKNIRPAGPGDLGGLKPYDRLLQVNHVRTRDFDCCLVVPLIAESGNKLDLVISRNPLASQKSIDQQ

IL16_3, Q14005 = target: IL16_3, Q14005
Sequence of IL16_3, Q14005 (Q14005 1107-1207): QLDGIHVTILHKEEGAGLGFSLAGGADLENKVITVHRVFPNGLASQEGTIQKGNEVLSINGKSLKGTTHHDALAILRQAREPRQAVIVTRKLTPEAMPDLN

RADIL, Q96JH8 = target: T3, RADIL, Q96JH8
T3 sequence (Q96JH8 971-1071, limits assumed, looked up): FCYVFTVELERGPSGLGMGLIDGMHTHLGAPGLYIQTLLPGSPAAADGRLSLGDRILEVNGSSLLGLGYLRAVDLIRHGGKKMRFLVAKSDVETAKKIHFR

LNX2_2, Q8N448 = target: T4, LNX2_2, Q8N448
T4 sequence (Q8N448 334-432, limits assumed, looked up): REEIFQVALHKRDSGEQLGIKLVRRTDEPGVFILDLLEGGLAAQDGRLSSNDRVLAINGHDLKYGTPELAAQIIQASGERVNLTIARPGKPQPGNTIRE

Inadl_5, Q8NI35 = target: Inadl_5, Q8NI35
Sequence of Inadl_5, Q8NI35 (Q8NI35 673-780): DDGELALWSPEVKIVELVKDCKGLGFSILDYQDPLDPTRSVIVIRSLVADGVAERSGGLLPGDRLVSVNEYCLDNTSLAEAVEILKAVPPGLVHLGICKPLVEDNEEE

LNX1_3, Q8TBB1 = target: LNX1_3, Q8TBB1
Sequence of LNX1_3, Q8TBB1 (Q8TBB1 500-596): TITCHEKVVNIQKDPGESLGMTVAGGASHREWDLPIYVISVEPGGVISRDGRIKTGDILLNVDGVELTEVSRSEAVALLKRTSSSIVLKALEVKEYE

MAGI1_1, Q96QZ7 = target: MAGI1_1, Q96QZ7
Sequence of MAGI1_1, Q96QZ7 (Q96QZ7 1-106): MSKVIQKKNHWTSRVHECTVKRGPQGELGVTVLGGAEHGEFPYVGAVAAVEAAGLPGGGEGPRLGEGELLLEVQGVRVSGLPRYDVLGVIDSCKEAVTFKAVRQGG

PCLO, Q9Y6V0 = target: T5, PCLO, Q9Y6V0
T5 sequence (Q9Y6V0 4491-4600, limits assumed, looked up): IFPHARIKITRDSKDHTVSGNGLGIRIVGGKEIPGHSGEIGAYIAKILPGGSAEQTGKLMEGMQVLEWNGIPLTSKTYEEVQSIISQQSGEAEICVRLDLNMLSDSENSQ

FRMPD2_1, Q68DX3 = target: FRMPD2_1, Q68DX3
Sequence of FRMPD2_1, Q68DX3 (Q68DX3 770-861): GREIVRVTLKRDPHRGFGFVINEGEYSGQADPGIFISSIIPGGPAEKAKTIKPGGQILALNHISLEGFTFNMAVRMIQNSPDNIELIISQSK

Inadl_9, Q8NI35 = target: Inadl_9, Q8NI35
Sequence of Inadl_9, Q8NI35 (Q8NI35 1530-1615): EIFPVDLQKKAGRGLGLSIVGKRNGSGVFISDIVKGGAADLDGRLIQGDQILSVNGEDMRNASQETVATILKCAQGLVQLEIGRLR

LIN7A, O14910 = target: T6, LIN7A, O14910
T6 sequence (O14910 103-200, limits assumed, looked up): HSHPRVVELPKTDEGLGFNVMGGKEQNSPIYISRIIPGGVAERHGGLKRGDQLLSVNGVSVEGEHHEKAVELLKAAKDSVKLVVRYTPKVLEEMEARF

ARHGEF11, O15085 = target: T7, ARHGEF11, O15085
T7 sequence (O15085 42-136, limits assumed, looked up): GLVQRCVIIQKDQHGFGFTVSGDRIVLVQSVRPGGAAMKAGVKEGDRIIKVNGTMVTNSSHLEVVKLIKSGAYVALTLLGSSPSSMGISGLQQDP

HTRA4, P83105 = target: T8, HTRA4, P83105
T8 sequence (P83105 378-476, limits assumed, looked up): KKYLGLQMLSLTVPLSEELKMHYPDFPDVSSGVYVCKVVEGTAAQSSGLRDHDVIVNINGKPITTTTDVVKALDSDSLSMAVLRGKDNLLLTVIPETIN

GOPC, Q9HD26 = target: GOPC, Q9HD26
Inadl_10, Q8NI35 = target: Inadl_10, Q8NI35
Sequence of Inadl_10, Q8NI35 (Q8NI35 1673-1763): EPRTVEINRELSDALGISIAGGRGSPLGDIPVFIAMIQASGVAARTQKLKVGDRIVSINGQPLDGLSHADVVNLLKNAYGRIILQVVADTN

MPDZ_10, O75970 = target: T9, MPDZ_10, O75970
T9 sequence (O75970 1624-1722, limits assumed, looked up): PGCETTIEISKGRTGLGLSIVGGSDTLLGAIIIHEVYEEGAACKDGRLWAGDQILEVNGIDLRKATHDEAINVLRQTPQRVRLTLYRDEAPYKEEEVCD

NHERF3_4, Q5T2W1 = target: T10, NHERF3_4, Q5T2W1
T10 sequence (Q5T2W1 373-468, limits assumed, looked up): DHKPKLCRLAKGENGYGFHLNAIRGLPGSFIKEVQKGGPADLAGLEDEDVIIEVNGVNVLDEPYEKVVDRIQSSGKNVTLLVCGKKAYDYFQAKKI

TX1BP3, O14907 = target: T11, TX1BP3, O14907
T11 sequence (O14907 10-122, limits assumed, looked up): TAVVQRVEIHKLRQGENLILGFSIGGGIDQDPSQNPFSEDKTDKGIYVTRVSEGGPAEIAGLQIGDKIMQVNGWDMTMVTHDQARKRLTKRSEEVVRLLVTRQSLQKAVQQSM

TJP1_2, Q07157 = target: TJP1_2, Q07157
Sequence of TJP1_2, Q07157 (Q07157 181-274): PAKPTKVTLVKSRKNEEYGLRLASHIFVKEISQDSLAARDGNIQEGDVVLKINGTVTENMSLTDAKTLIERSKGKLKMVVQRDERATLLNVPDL

MAGI1_2, Q96QZ7 = target: MAGI1_2, Q96QZ7
Sequence of MAGI1_2, Q96QZ7 (Q96QZ7 456-580): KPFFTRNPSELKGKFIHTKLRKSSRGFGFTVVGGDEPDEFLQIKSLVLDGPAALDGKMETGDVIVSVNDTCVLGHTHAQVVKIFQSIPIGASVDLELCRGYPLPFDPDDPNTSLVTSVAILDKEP

TJP2_1, Q9UDY2 = target: TJP2_1, Q9UDY2
Sequence of TJP2_1, Q9UDY2 (Q9UDY2 24-128): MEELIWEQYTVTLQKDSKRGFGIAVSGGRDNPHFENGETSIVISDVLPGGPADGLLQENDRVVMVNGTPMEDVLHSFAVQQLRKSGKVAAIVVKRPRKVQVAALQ

DFNB31_1, Q9P202 = target: T12, DFNB31_1, Q9P202
T12 sequence (Q9P202 135-233, limits assumed, looked up): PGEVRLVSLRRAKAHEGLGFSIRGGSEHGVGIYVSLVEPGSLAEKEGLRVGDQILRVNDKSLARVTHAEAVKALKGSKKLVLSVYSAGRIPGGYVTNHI

MAGI3_2, Q5TCQ9 = target: MAGI3_2, Q5TCQ9
Sequence of MAGI3_2, Q5TCQ9 (Q5TCQ9 398-503): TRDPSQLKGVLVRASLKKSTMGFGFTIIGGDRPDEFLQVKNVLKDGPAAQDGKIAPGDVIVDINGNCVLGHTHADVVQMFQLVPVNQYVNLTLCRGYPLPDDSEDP

[1] = plain residues with an end cap or a label only (N-terminal biotin on a linker: ado-ado)
[2] = plain residues with an end cap or a label only (N-terminal biotin on a linker: (peg)3)
[3] = modified: phospho on T at position -2 from the C-terminal residue

Measured: pKd

Sequence of FRMPD2_2, Q68DX3 (Q68DX3 944-1038): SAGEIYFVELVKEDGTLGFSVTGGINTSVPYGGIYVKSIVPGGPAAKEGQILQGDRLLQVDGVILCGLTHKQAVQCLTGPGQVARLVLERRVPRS

LPAHHNATRL [SLC34A1, Q06495;Q06495-1]
3.96: HTRA4, P83105; [1]
4.09: NHERF3_4, Q5T2W1; [1]
4.11: ARHGEF11, O15085; [1]
4.53: GOPC, Q9HD26; [1]
below the threshold: FRMPD2_2, Q68DX3; [1] | MPP2, Q14168; [1] | GRIP1_7, Q9Y3R0; [1] | IL16_3, Q14005; [1] | RADIL, Q96JH8; [1] | LNX2_2, Q8N448; [1] | Inadl_5, Q8NI35; [1] | LNX1_3, Q8TBB1; [1] | MAGI1_1, Q96QZ7; [1] | PCLO, Q9Y6V0; [1] | FRMPD2_1, Q68DX3; [1] | Inadl_9, Q8NI35; [1] | LIN7A, O14910; [1] | Inadl_10, Q8NI35; [1] | MPDZ_10, O75970; [1] | TX1BP3, O14907; [1] | TJP1_2, Q07157; [1]

KSGKQTMLVV [TRIM29, Q14134;Q14134-2]
4.46: RADIL, Q96JH8; [1]
5.19: LNX2_2, Q8N448; [1]
4.14: HTRA4, P83105; [1]
below the threshold: FRMPD2_2, Q68DX3; [1] | MPP2, Q14168; [1] | GRIP1_7, Q9Y3R0; [1] | IL16_3, Q14005; [1] | Inadl_5, Q8NI35; [1] | MAGI1_2, Q96QZ7; [1] | LNX1_3, Q8TBB1; [1] | MAGI1_1, Q96QZ7; [1] | PCLO, Q9Y6V0; [1] | TJP2_1, Q9UDY2; [1] | DFNB31_1, Q9P202; [1] | LIN7A, O14910; [1] | GOPC, Q9HD26; [1] | Inadl_10, Q8NI35; [1] | NHERF3_4, Q5T2W1; [1]

QKNRKAQEDL [CES3, Q6UWW8]
below the threshold: FRMPD2_2, Q68DX3; [1] | MPP2, Q14168; [1] | GRIP1_7, Q9Y3R0; [1] | IL16_3, Q14005; [1] | RADIL, Q96JH8; [1] | LNX2_2, Q8N448; [1] | Inadl_5, Q8NI35; [1] | MAGI1_2, Q96QZ7; [1] | LNX1_3, Q8TBB1; [1] | MAGI1_1, Q96QZ7; [1] | PCLO, Q9Y6V0; [1] | FRMPD2_1, Q68DX3; [1] | TJP2_1, Q9UDY2; [1] | MAGI3_2, Q5TCQ9; [1] | DFNB31_1, Q9P202; [1] | Inadl_9, Q8NI35; [1] | LIN7A, O14910; [1] | ARHGEF11, O15085; [1] | HTRA4, P83105; [1] | GOPC, Q9HD26; [1] | Inadl_10, Q8NI35; [1] | MPDZ_10, O75970; [1] | NHERF3_4, Q5T2W1; [1] | TX1BP3, O14907; [1] | TJP1_2, Q07157; [1]

VYPNAKVELV [PDLIM4_iso2, P50479;P50479-1]
4.55: HTRA4, P83105; [1]
4.62: LNX2_2, Q8N448; [1]
below the threshold: FRMPD2_2, Q68DX3; [1] | MPP2, Q14168; [1] | GRIP1_7, Q9Y3R0; [1] | IL16_3, Q14005; [1] | Inadl_5, Q8NI35; [1] | MAGI1_2, Q96QZ7; [1] | LNX1_3, Q8TBB1; [1] | MAGI1_1, Q96QZ7; [1] | PCLO, Q9Y6V0; [1] | FRMPD2_1, Q68DX3; [1] | TJP2_1, Q9UDY2; [1] | MAGI3_2, Q5TCQ9; [1] | DFNB31_1, Q9P202; [1] | LIN7A, O14910; [1] | ARHGEF11, O15085; [1] | GOPC, Q9HD26; [1] | Inadl_10, Q8NI35; [1] | MPDZ_10, O75970; [1] | NHERF3_4, Q5T2W1; [1] | TX1BP3, O14907; [1]
5.24: RADIL, Q96JH8; [1]

NLNSSEGVPDLLV [SARS-CoV-E, P59637]
4.04: GRIP1_7, Q9Y3R0; [2]
below the threshold: FRMPD2_2, Q68DX3; [2] | MPP2, Q14168; [2] | IL16_3, Q14005; [2] | RADIL, Q96JH8; [2] | Inadl_5, Q8NI35; [2] | MAGI1_2, Q96QZ7; [2] | LNX1_3, Q8TBB1; [2] | MAGI1_1, Q96QZ7; [2] | PCLO, Q9Y6V0; [2] | FRMPD2_1, Q68DX3; [2] | TJP2_1, Q9UDY2; [2] | MAGI3_2, Q5TCQ9; [2] | DFNB31_1, Q9P202; [2] | Inadl_9, Q8NI35; [2] | LIN7A, O14910; [2] | ARHGEF11, O15085; [2] | HTRA4, P83105; [2] | GOPC, Q9HD26; [2] | Inadl_10, Q8NI35; [2] | MPDZ_10, O75970; [2] | NHERF3_4, Q5T2W1; [2] | TX1BP3, O14907; [2]
5.18: TJP1_2, Q07157; [2]
4.24: LNX2_2, Q8N448; [2]

RLQRRRETQV [HPV18-E6_-2P, P06463]
below the threshold: FRMPD2_2, Q68DX3; [3] | MPP2, Q14168; [3] | GRIP1_7, Q9Y3R0; [3] | IL16_3, Q14005; [3] | RADIL, Q96JH8; [3] | LNX2_2, Q8N448; [3] | Inadl_5, Q8NI35; [3] | MAGI1_2, Q96QZ7; [3] | LNX1_3, Q8TBB1; [3] | MAGI1_1, Q96QZ7; [3] | PCLO, Q9Y6V0; [3] | FRMPD2_1, Q68DX3; [3] | TJP2_1, Q9UDY2; [3] | MAGI3_2, Q5TCQ9; [3] | DFNB31_1, Q9P202; [3] | Inadl_9, Q8NI35; [3] | LIN7A, O14910; [3] | ARHGEF11, O15085; [3] | HTRA4, P83105; [3] | Inadl_10, Q8NI35; [3] | MPDZ_10, O75970; [3] | NHERF3_4, Q5T2W1; [3] | TX1BP3, O14907; [3] | TJP1_2, Q07157; [3]
